Drawing on the supplement of paper PMC6379048, this text covers Kd for three sequences.

Holding throughout (assay): Kd (EC50 corrected by depletion factor)
For one data set, the target named is RPL7 (UniProt P18124). The procedure, abridged: (§1)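 HEK293-FT lysate (2.5 mg protein/well) was pre-incubated 1 h at 4°C with free RNA oligos (0 nM to 30 μM), then 30 min at 4°C with the same 5′-amino-C6 oligos coupled to NHS-Sepharose beads. Bound proteins were quantified by label-free LC-MS/MS in three biological replicates and two independent experiments, and normalised to the water control. EC50 came from a four-parameter log-logistic fit; Kd is EC50 times a protein-dependent depletion factor.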

A further data set has as its target T1, GPALPP1 (UniProt Q8IXQ4).
T1 sequence: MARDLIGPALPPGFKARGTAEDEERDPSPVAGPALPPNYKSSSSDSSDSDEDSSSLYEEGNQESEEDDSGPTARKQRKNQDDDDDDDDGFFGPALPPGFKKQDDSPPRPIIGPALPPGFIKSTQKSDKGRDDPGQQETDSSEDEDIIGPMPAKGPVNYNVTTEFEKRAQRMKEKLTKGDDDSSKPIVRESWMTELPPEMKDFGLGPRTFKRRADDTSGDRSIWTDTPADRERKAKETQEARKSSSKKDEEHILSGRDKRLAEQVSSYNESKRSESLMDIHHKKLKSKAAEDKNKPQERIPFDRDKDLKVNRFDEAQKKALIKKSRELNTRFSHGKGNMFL
The procedure, abridged:
as §1

The target of a further data set is CSNK2A1 (UniProt P68400). The procedure, abridged: as §1
CSNK2A1, sequence (P68400 whole entry, looked up): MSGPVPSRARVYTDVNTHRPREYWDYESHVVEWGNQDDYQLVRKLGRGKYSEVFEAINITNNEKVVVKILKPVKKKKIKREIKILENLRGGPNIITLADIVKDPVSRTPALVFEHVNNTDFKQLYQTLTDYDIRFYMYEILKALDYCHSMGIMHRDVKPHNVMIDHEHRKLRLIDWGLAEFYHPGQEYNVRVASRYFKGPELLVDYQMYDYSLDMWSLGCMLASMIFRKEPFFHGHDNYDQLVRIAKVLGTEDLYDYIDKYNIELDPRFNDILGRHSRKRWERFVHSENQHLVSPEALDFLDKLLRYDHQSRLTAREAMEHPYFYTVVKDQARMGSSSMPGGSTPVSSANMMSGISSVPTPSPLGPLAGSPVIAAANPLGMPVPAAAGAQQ
The target in the next data set is TUBB2A (UniProt Q13885). The procedure, abridged: as §1
TUBB2A, sequence (Q13885 whole entry): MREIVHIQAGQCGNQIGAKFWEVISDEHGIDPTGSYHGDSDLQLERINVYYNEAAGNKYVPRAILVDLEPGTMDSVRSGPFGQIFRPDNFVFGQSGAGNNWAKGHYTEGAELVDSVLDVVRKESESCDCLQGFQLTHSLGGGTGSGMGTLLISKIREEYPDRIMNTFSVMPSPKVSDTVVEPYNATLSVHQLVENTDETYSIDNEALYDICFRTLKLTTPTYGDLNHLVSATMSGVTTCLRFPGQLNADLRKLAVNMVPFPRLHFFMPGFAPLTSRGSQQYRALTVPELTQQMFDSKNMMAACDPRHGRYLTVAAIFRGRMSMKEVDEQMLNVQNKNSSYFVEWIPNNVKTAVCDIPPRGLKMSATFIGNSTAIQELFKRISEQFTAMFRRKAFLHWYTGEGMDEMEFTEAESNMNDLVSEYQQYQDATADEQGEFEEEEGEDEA
The next data set addresses T2, NONO (UniProt Q15233).
T2 sequence: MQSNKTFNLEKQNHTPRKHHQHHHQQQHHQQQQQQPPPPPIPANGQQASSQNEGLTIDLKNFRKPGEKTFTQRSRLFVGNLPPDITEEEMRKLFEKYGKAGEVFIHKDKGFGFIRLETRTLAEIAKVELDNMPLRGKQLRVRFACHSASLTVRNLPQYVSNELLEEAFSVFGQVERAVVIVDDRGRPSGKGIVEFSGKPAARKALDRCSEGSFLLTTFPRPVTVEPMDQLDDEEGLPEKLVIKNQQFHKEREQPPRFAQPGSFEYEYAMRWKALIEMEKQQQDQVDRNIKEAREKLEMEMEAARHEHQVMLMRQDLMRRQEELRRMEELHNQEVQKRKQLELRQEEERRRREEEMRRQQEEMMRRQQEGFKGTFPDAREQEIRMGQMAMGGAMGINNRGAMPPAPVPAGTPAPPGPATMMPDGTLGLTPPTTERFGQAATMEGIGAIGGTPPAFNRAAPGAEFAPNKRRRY
Put shortly:
as §1

The target of a further data set is RPSA (UniProt P08865). The procedure, abridged: as §1
The next data set deals with MRPL1 (UniProt Q9BYD6). The procedure, abridged:
as §1

The next data set has as its target MRPS28 (UniProt Q9Y2Q9). Put shortly: as §1
In the next data set the target is T3, FASTKD2 (UniProt Q9NYY8).
T3 sequence: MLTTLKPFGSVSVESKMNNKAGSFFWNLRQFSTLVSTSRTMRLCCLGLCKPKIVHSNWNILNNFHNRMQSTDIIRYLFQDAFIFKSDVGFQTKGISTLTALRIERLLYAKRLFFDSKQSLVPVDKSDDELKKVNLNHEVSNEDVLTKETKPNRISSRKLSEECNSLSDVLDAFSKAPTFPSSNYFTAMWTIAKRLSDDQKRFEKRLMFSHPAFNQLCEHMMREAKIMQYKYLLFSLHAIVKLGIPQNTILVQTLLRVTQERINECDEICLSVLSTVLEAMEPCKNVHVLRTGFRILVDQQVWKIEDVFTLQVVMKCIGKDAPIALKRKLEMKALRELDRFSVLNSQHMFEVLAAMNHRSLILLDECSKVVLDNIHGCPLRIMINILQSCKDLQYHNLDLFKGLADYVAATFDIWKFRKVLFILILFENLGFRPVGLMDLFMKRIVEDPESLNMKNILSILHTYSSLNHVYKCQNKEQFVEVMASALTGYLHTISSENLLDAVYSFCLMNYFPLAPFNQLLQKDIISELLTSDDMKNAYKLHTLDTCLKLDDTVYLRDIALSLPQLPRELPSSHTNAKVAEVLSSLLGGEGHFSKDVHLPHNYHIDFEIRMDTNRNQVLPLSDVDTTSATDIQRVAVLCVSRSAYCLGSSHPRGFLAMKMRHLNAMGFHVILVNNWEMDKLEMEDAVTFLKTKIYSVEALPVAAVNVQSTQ
Put shortly:
as §1

The target of a further data set is MRPS34 (UniProt P82930). Put shortly:
as §1

The target of the next data set is T4, CSTF2T (UniProt Q9H0L4).
T4 sequence: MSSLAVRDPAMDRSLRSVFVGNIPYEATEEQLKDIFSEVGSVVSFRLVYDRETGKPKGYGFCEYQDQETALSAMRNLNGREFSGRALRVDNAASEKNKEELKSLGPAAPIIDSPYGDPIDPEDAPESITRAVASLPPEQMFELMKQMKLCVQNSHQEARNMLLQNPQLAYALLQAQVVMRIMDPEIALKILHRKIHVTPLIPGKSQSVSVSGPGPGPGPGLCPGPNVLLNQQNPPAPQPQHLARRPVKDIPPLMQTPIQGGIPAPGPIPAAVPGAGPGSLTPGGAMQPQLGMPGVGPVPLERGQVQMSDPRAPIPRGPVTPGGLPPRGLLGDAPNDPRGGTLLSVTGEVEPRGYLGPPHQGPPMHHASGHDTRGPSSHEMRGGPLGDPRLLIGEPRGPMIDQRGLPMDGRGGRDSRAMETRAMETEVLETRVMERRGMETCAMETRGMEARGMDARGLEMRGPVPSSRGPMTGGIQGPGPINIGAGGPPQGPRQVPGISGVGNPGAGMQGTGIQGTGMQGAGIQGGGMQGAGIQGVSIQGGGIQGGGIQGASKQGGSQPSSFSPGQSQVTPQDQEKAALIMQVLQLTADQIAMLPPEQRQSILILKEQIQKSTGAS
Put shortly:
as §1

The target of a further data set is TOE1 (UniProt Q96GM8). The procedure, abridged:
as §1

Regarding AAUAAA, the dissociation constant Kd (in general, the constant that tells how readily two partners part at equilibrium) in the data set with RPL7 is 3960 nM; with GPALPP1, 33 nM; with CSNK2A1, 78.6 nM; with TUBB2A it was 1030 nM; in the data set with NONO, 0.305 nM.

As to CUGUCCU, the Kd with RPSA came to 187 nM; in the data set with MRPL1 it was 80.4 nM.

As to UAUUUAU, the dissociation constant Kd with MRPS28 worked out at 15.9 nM; with FASTKD2, 3890 nM; in the data set with MRPS34 it was 46.2 nM; with CSTF2T, 257 nM; in the data set with TOE1 it was 1020 nM.
